Target: human Claudin 18.2 (hClaudin18.2) (human) (UniProt P56856)
Test: flow cytometry on CHO cells overexpressing claudin18.2

How did the EC50 turn out when IMAB362-FC (Fc fusion) was run?
Its EC50 is 2 µg/mL.

Reference: patent US20250270313A1
